This note sets out measurements from US20140349871A1 (University of Washington, published 2014).

This experiment deals with T1, prohibitin-2 (PHB2) (human, UniProt Q99623 2-299).
T1 construct: whole, on cells; also called BAP37
The experiment can be described thus: in vivo PIR (BDP-NHP) cross-linking of intact HeLa cells, ReACT LC-MS3.

T1 sequence (Q99623 2-299): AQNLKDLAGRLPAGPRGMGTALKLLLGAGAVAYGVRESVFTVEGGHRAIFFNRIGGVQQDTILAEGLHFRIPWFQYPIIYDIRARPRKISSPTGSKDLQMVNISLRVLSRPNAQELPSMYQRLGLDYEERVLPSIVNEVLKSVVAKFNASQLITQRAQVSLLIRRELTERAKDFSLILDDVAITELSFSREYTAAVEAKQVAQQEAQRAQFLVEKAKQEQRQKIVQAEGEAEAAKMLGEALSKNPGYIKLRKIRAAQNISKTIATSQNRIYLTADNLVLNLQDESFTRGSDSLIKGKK

B1: prohibitin (PHB) (other, human, UniProt P35232 2-272, looked up)
chain: AAKVFESIGKFGLALAVAGGVVNSALYNVDAGHRAVIFDRFRGVQDIVVGEGTHFLIPWVQKPIIFDCRSRPRNVPVITGSKDLQNVNITLRILFRPVASQLPRIFTSIGEDYDERVLPSITTEILKSVVARFDAGELITQRELVSRQVSDDLTERAATFGLILDDVSLTHLTFGKEFTEAVEAKQVAQQEAERARFVVEKAEQQKKAAIISAEGDSKAAELIANSLATAGDGLIELRKLEAAEDIAYQLSRSRNITYLPAGQSVLLQLPQ
notes: whole, on cells; also called prohibitin 1; BAP32
As for B1, the binding result is on record as “binds”.
